# Measured values published in the supplement of paper PMC9170038.
# System: MS2 coat protein
# Assay: apparent KD of MS2 coat protein; designed switch direction (-1 OFF switch, 1 ON switch): -1; higher = weaker reporter binding
# Outline: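 Transcription of designed RNA switches on Illumina chips was done by stalled E. coli RNA polymerase. SNAP-549-labelled MS2 coat protein was then titrated in doubling steps from 0.7 or 1.5 nM to 3 µM, with steps of 0.8–1.5 h at the lowest and 10–20 min at the highest concentration. The per-design median over clusters of curve-fitted normalised fluorescence is reported as apparent KD.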
# [1] = input ligand: microRNA oligo, concentration not stated
# [2] = Eterna round: R95, input ligand: FMN 200 uM
# [3] = Eterna round: R95, input ligand: microRNA oligo, concentration not stated
# [4] = Eterna round: R95, input ligand: none
Sequence,apparent KD of MS2 coat protein (input ligand: FMN 200 uM),apparent KD of MS2 coat protein [1],apparent KD of MS2 coat protein (input ligand: none),apparent KD of MS2 coat protein [2],apparent KD of MS2 coat protein [3],apparent KD of MS2 coat protein [4]
"AAUAAUCGGGCCUUCCUAUUACAUGAGGAUCACCCAUGUCUCGAGGAUAUACCGACGCACGGUCCGUAGAAGGCGAGACCACAC [Esusbied] (Eterna round: R96, puzzle: Exclusion NG 3)",141 nM,14.5 nM,24.7 nM,,,
"AAUAAGGUAGGAUAUACAUGAGGAUCACCCAUGUCCCACCCGUUACCUAUGACCAUAUGUAGAAGGACCAAUAA [Exy#1] (Eterna round: R97, puzzle: Exclusion 3)",20 nM,,21.3 nM,,,
"AACAGUCCUUAGGAUAUGUGCGAUUAAUAUCGUGCAGAAGGAUGGACAUGAGGAUCACCCAUGUAAAUACUACC [Omei Ex6 A17] (Eterna round: R97, puzzle: Exclusion 6)",62.6 nM,,20.9 nM,,,
UAAAAGGUAGGAUAUACGAAAAAAAAGGGUAGAAAAAAAACACAUGAGGAUCACCCAUGUAGAAGGACCAAAAG [salish99_ex2_r3_048] (puzzle: Exclusion 2),,,,64.3 nM,29.8 nM,30.1 nM
"AUUGAUAGCACAGGAUAUUGAGAUUUGAAUUGACAAGAAGGGUGUACAUGAGGAUCACCCAUGUAAUGGGAGAGUGGUUGAUUA [JR_ExcNG1_Sub002] (Eterna round: R96, puzzle: Exclusion NG 1)",365 nM,324 nM,582 nM,,,
"GUAUAACUACACGGGCUCAACAUGAGGAUCACCCAUGUCUUAUACGCAAGCUUUUUGCUUGUCUUAUCUGUCCGUGA [Tibimaesan] (puzzle: Sensor v3, turn-off variant 1)",,,,12.6 nM,11.9 nM,12.3 nM
"UUUAAGGGAAUUAAGAUCACAUGAGGAUCACCCAUGUAUAUAUAGGAUAUCAGCUCGUUUAGAGCUGAGAAGGAUAUAUACAUA [ExNG3/6-A2] (Eterna round: R96, puzzle: Exclusion NG 3)",162 nM,83.8 nM,155 nM,,,
"UGUUGUCGCGCAGGAUAUUGUCAACAGGCAGUAGGAUAUCCGAAAGGAGAAGGACCGCCAACAGGCGAGAAGGGCGGGACAACU [pwkr exNG2 2xF7 2xFMN.9] (Eterna round: R96, puzzle: Exclusion NG 2)",32.1 nM,35.7 nM,16 nM,,,
GCCAGAGCAGGAUAUUCAAUAUCUCACAUGAGGAUCACCCAUGUCCAGCGAAAGCUGGAGGGAGAAGGGCUCUGGC [Fiskers Ex 5 - 9] (puzzle: Exclusion 5),,,,42.1 nM,57.3 nM,61.6 nM
"GAUCAUGCAGGAUAUGCAGUAACCAUGAAAACAUGGUUGCAACAUGAGGAUCACCCAUGUAGAAGGGCAUGAUC [Omei Ex2 A3] (Eterna round: R97, puzzle: Exclusion 2)",10.8 nM,,13.9 nM,,,
"ACCAUUUACUAAUCCUCUAUACAUGAGGAUCACCCAUGUUCUGAGGAUAUCAUCGUUCGCCGCGUUGAGAAGGCAGAGCAUUCG [Ariestion] (Eterna round: R96, puzzle: Exclusion NG 3)",157 nM,22.4 nM,24.8 nM,,,
"CUCCGGCGUGUAGGAUAUGGUUCCGUUUCGGUUCCAGAAGGACAUGAGGAUCACCCAUGUGCCUGUCGUCGGUCGUCACCGGGC [salish99_ExNG1_r04_217] (Eterna round: R96, puzzle: Exclusion NG 1)",17.8 nM,10.3 nM,15.4 nM,,,
"GCCCGGGCAGGAUAUACAAGCUUGAGCUGAAAAGUUCGAGUACAUGAGGAUCACCCAUGUAGAAGGGCCCGGGC [-37.5, -35.6 kcal, A 28% 1 bis] (Eterna round: R97, puzzle: Exclusion 2)",29.4 nM,,18.7 nM,,,
"GAGUAGUAAGGAUAUGUCUCUGGUGGCUACGGUCACUAGAGGCAGAAGGUACAUGAGGAUCACCCAUGUUCCUC [ExDelusion 8 - Jieux - Exclusion 4] (Eterna round: R97, puzzle: Exclusion 4)",186 nM,,55.8 nM,,,
"AAGAUGCGGGUAGGAUAUGGGAAUUAAUAAAGACCAGAAGGACUGGUCACACAACAUGAGGAUCACCCAUGUGUGUGUAGUGAA [exng1 ex1] (Eterna round: R96, puzzle: Exclusion NG 1)",,9.2 nM,,,,
"AGCCACAGAGGAUAUACAUACAUCCAGUGGUUAAGAAUACUACAUGAGGAUCACCCAUGUAGAAGGCUGUGGCA [Omei Ex2 BD B11] (Eterna round: R97, puzzle: Exclusion 2)",108 nM,,22.4 nM,,,
"UAAACAUGGAUAUAACAGUACAUGAGGAUCACCCAUGUUAAUACGAUAGAUUAUAACAAGCUUUUUUGUCGUCUUAA [Cooked Book] (Eterna round: R97, puzzle: Sensor, turn-off variant 1)",116 nM,,85.4 nM,,,

Sequence,apparent KD of MS2 coat protein (input ligand: FMN 200 uM),apparent KD of MS2 coat protein [1],apparent KD of MS2 coat protein (input ligand: none),apparent KD of MS2 coat protein [2],apparent KD of MS2 coat protein [3],apparent KD of MS2 coat protein [4]
CUGGUCCGAGGAUAUAUUAUGUGAAACAUGAGGAUCACCCAUGUAAUAUGAUGGAUGAAAAUAGAAGGCGGACUAG [Mat - Exclusion 5 - JL mod - D30] (puzzle: Exclusion 5),,,,36.2 nM,43.5 nM,61 nM
GUUGGAUGAGGAUAUCGAGGUUAGUACAUGAGGAUCACCCAUGUUAUCCAGGUGUCGGUUCGAGAAGGCAUUGGAC [LRO-Ex5-14] (puzzle: Exclusion 5),,,,,32.9 nM,
"UAAAACCGGUGAGGAUAUUUUUAAUAGAGCUUUAUGAUAUACAUGAGGAUCACCCAUGUUACGUUAAAGAAGGCAUCGGAAAAU [Mat - Exclusion NG 2 - Mod of JL - D99] (Eterna round: R96, puzzle: Exclusion NG 2)",13.7 nM,14.5 nM,19.9 nM,,,
GAAUAGGUAGGAUAUACGAAAAAAAAGGGUAGAAAAAAAACACAUGAGGAUCACCCAUGUAGAAGGACCAAAAG [salish99_ex2_r3_089] (puzzle: Exclusion 2),,,,68.6 nM,31.6 nM,29.6 nM
GAAAAGGUAGGAUAUACGAAAAAAAAGUGUAGAAAAAAAACACAUGAGGAUCACCCAUGUAGAAGGACCAAAAG [salish99_ex2_r3_069] (puzzle: Exclusion 2),,,,27 nM,34.8 nM,32.6 nM
"GUAGAGUCAGGAUAUACAAGAUCGAAAGAUCGGCGAUCCAUACAUGAGGAUCACCCAUGUAGAAGGGACUCUAC [Eli x2 4.003] (Eterna round: R97, puzzle: Exclusion 2)",560 nM,,33.4 nM,,,
"AGUUAGAUAGGAUAUGCCCGAGAUAACAUGAGGAUCACCCAUGUGACCGAAUCUAUUCUAGCAGAAGGGUUUAUGA [Mod of ViennaUCT 19 - Jieux - Exclusion 5] (Eterna round: R97, puzzle: Exclusion 5)",40.2 nM,,95 nM,,,
"UUCCUCACUUCUUUGUCUCACAUGAGGAUCACCCAUGUAAUAUAGGAUAUGCUUAGUAUUUCUAUGCAGAAGGAUAUUAGUUUU [JR_ExcNG3_Sub086] (Eterna round: R96, puzzle: Exclusion NG 3)",111 nM,27.3 nM,32.3 nM,,,
"GUAUGUGCGAGAGGAUAUCGUGUACAAAGUACACGAGAAGGCUUCACAUGAGGAUCACCCAUGUACCGAGGUGAAACACCUUGA [Omei Exc(NG)1 Bv8] (Eterna round: R96, puzzle: Exclusion NG 1)",934 nM,173 nM,270 nM,,,
"GCAGCAUUAGGAUAUUGCUAAUGUAACAUGAGGAUCACCCAUGUGUGUCGUUAUUACUUAUAAGAAGGAAUGUGCC [Eternabot (L2) Solution 88] (Eterna round: R97, puzzle: Exclusion 5)",24.9 nM,,36.4 nM,,,
"CAUCAGAUAGGAUAUACAGGCCCGUCUUUAUAUUGAUCCCGACAUGAGGAUCACCCAUGUAGAAGGAUCAGAUG [Mod 27 - Jieux - Exclusion 2] (Eterna round: R97, puzzle: Exclusion 2)",21.2 nM,,16.1 nM,,,
CUUUUGUGAGGAUAUUAGUAGUAAAUAAUUAAAAUUACUACUGAGAAGGCACAUGAGGAUCACCCAUGUUCCUC [salish99_ex4_r3_056] (puzzle: Exclusion 4),,,,,35.2 nM,
"ACGAUGACCGAAAAGUGUUAACUGACAUGAGGAUCACCCAUGUAGGAUAUGGCUACGAAAAGUAGUCAGAAGGGCAUGUCAUCA [Omei Exc(NG) 3 Av8] (Eterna round: R96, puzzle: Exclusion NG 3)",27 nM,18.7 nM,27.3 nM,,,
GGUAGAGAGCAGGAUAUCUUGGGUAAGUAUCGUAGAGAAGGGCUCACAUGAGGAUCACCCAUGUGGUCCAAGAU [JL Dibiri mod 05] (puzzle: Exclusion 6),,,,,14.2 nM,
"UUAUUAUAUGUAGGAUAUGCAUAUUGUUGUUAUGCAGAAGGACAUGAGGAUCACCCAUGUAUAUUAUUGUUAUGUAUUAUAUAU [Title] (Eterna round: R96, puzzle: Exclusion NG 1)",64.7 nM,23.3 nM,37.1 nM,,,
"CCGGUUGGCGCAGGAUAUACAUGAGGAUCACCCAUGUUCAUGAGGAUCACCCAUGAGUUUUUGUUGUAGAAGGGUGGCCCGGCC [A second MS2 with the first and last base exchanged (less A)] (Eterna round: R96, puzzle: Exclusion NG 2)",23.8 nM,15 nM,29.4 nM,,,
